According to publication PMC13598245:

Key:
[1] = target: 14-3-3η (purified, recombinant) (UniProt Q04917); assay: cross-linking + other: mass photometry; complex stabilised by glutaraldehyde cross-linking, then mass photometry (25 to 50 nM, 50 mM HEPES pH 7.4, 150 mM NaCl, 1 mM TCEP)
[2] = target: 14-3-3η (purified, recombinant) (UniProt Q04917); assay: SEC; complex formed in vitro: equimolar MAST1^D p-S90 and 14-3-3η, 30 min at room temperature, then analytical SEC (Superdex 200 Increase 3.2/300, 50 mM HEPES pH 7.4, 150 mM NaCl, 1 mM TCEP, 4 °C; 50 μL of 30 μM); Coomassie SDS-PAGE of fractions with gel densitometry
[3] = target: MAST1^DK ΔS90 ΔS161 (Mus musculus); assay: FP
[4] = target: 14-3-3η (purified recombinant) (UniProt P68510); assay: fluorescence anisotropy, FITC peptide; conditions: reference: unphosphorylated peptide …
[5] = target: GST-tagged 14-3-3η (coexpressed with MAST1^DK) (UniProt Q04917); assay: cross-linking + other: mass photometry; complex stabilised by glutaraldehyde cross-linking, then mass photometry (25 to 50 nM, 50 mM HEPES pH 7.4, 150 mM NaCl, 1 mM TCEP)
[6] = target: GST-tagged 14-3-3η (coexpressed with MAST1^DK) (UniProt Q04917); assay: SEC; complex coexpressed in Sf9, affinity-purified by the GST tag of 14-3-3η, then analytical SEC (Superdex 200 Increase 3.2/300, 50 mM HEPES pH 7.4, 150 mM NaCl, 1 mM TCEP, 4 °C); Coomassie SDS-PAGE of fractions with gel densitometry
14-3-3η (endogenous) = 14-3-3η (endogenous) (UniProt Q04917); assay: GFP-Trap affinity purification, mass spectrometry; conditions: sites S90

14-3-3η (purified, recombinant), sequence (Q04917 whole entry): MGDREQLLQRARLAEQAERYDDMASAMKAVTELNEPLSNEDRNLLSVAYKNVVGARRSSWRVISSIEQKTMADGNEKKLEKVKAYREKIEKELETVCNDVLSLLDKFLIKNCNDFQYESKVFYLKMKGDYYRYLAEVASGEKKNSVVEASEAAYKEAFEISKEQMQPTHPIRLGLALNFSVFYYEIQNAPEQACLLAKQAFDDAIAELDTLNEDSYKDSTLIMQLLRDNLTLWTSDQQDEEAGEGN
GST-tagged 14-3-3η (coexpressed with MAST1^DK), sequence (Q04917 whole entry): as above
MAST1^DK ΔS90 ΔS161 (Mus musculus), sequence (Q9R1L5 whole entry S90del/S161del): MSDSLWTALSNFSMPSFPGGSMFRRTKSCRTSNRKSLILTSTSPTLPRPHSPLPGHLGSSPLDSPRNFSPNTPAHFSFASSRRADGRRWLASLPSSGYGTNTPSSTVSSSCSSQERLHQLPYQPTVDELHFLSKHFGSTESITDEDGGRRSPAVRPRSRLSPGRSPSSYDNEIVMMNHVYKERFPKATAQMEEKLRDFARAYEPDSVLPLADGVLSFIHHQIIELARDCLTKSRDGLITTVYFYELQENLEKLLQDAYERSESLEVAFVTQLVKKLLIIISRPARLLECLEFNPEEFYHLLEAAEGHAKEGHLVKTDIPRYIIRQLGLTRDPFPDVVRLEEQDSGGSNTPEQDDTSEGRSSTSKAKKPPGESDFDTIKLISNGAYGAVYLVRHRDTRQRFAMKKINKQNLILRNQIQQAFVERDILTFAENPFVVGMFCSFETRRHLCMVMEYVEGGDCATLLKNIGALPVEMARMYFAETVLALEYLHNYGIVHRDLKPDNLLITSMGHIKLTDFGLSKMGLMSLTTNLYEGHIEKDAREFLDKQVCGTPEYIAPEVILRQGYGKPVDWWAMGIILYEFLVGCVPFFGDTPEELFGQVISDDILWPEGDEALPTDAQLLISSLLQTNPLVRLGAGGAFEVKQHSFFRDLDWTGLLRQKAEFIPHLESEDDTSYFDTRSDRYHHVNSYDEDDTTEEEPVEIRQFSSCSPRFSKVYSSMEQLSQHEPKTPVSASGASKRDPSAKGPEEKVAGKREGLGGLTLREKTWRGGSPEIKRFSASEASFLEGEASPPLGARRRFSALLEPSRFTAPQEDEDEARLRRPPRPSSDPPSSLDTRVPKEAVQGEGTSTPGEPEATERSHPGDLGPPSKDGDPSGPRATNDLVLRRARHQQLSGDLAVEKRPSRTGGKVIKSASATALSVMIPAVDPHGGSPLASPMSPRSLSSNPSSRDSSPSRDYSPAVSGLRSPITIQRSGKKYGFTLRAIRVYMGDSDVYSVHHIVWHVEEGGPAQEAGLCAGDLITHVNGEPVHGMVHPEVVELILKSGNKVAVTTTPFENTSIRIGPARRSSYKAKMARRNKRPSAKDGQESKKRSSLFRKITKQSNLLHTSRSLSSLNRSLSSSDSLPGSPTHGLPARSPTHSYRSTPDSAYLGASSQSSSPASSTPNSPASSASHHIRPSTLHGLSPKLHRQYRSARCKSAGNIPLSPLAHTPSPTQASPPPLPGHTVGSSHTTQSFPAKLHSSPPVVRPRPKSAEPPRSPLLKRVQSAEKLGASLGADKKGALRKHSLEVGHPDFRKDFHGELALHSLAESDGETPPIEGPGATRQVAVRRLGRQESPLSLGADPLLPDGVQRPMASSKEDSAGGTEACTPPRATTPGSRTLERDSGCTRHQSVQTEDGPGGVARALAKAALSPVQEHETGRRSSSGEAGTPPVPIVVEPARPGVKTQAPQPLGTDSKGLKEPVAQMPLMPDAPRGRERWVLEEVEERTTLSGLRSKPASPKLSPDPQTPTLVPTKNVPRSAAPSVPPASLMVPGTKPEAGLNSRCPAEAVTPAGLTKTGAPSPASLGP

Question: What does the source list for “MAST1^D p-S90 (from UniProt Q9R1L5 1-1570) (domain or fragment)”?
Answer: stoichiometry N (MAST1:14-3-3η) [1]: 0.5; stoichiometry N (MAST1:14-3-3η) [2]: 0.5

Question: Which Kd [3] does the source give for MAST1^153-166 WT here?
Answer: 1170 µM

Question: Which “binding against the reference” value ([4]; sites S90) does the source give for “MAST1 85-97 (from UniProt Q9R1L5) p-S90 peptide” here?
Answer: gained

Question: For “MAST1^DK (copurified with 14-3-3η) (from UniProt Q9R1L5 1-1570) (domain or fragment)”, which stoichiometry N (MAST1:14-3-3η) [5] is on record?
Answer: 0.5

Question: And the stoichiometry N (MAST1:14-3-3η) [6]?
Answer: 0.5

Question: Which “binding against the reference” value (14-3-3η (endogenous); reference: S161A single mutant (S90 intact)) does the source give for “MAST1 MAST1DKP (from UniProt Q9R1L5) S90A S161A” here?
Answer: weaker

Question: Which “binding against the reference” value ([4]; sites S161) does the source give for “MAST1 156-168 (from UniProt Q9R1L5) p-S161 peptide” here?
Answer: gained

Question: With “MAST1 MAST1DKP (from UniProt Q9R1L5) S90A” as the substance, how does the “binding against the reference” value (14-3-3η (endogenous); reference: wild type) read?
Answer: weaker
